Laboratory results as given in patent publication US20230065226A1.

Biological target: mouse chemokine receptors (mouse)
Assay: cell-based or functional assay

B1: (LD78β(C11S)Fv^315)2 vaccibody (protein, part only; not given: IgG3 hinge, CH3, scFv carrier, not shown: another chain or arm of the molecule; a dimerising Fc or GST; large carriers; small tags and cut ends)
chain: APLAADTPTASCFSYTSRQIPQNFIADYFETSSQCSKPSVIFLTKRGRQVCADPSEEWVQKYVSDLELSA
modifications: not fully specified (C-terminus); ends and bridges not checked; also: covalent homodimer via IgG3 hinge disulfides, C-terminal carrier (IgG3 hinge, CH3, scFv315) not in chain
- ability to stimulate T cells (proliferation of Id^315-specific Th2 cells with BALB/c splenocytes as APC): 100 fold
